From patent US5723127

Molecular target: B7 (cell surface glycoprotein, CD28-ligand B7) (Homo sapiens (Human)) (UniProt P33681)

Substance: CTLA-4Ig (chimeric recombinant soluble B7-ligand) (from UniProt P16410) (Fc fusion)
- IFN-γ production in PBMC stimulated with IL-12 alone (RIA): > 5 fold
